Measurements taken from PMC2715080 (The Journal of Experimental Medicine, 2009).
Where two headings read alike, the source gives them in different places.

What was measured:
[1] = target: T1, B7-H6-Fc (extracellular domain of B7-H6, aa 1-267, fused to effector-negative mouse IgG2a Fc) (human, UniProt Q68D85 25-267); test: SPR
T1 sequence (looked up): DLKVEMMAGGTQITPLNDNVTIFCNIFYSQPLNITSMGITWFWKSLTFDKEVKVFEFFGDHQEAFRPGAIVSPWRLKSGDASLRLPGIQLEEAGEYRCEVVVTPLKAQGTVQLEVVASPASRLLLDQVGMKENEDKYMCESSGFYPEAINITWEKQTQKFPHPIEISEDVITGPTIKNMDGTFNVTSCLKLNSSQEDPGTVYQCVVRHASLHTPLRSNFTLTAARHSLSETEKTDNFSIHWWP

[2] = target: T1, B7-H6-Fc (extracellular domain of …); test: SPR; remark: listed apart in the source

B1: NKp30-hFc (soluble recombinant NKp30 fused to mutated human IgG1) (Fc fusion, UniProt O14931 19-135, looked up)
chain: LWVSQPPEIRTLEGSSAFLPCSFNASQGRLAIGSVTWFRDEVVPGKEVRNGTPEFRGRLAPLASSRFLHDHQAELHIRDVRGHDASIYVCRVEVLGLGVGTGNGTRLVVEKEHPQLG
B1: binds [1]; binds [2].
